Legend:
[1] = test system: β-lactamase transport in E. coli JM109(DE3); assay: Ampicillin resistance, ability to form colonies on LB-agar plates with increasing ampicillin; type: cell-based, Escherichia coli; conditions: solid agar media with increasing ampicillin
Source text: The enhancement of protein translocation was further investigated using the plasmid-borne multicopy gene, β-lactamase. See Example 14. β-lactamase protein levels are much higher than induced alkaline phosphatase making this system a more sensitive monitor of protein translocation without the complications posed by low phosphate induction. Like alkaline phosphatase, β-lactamase is translocated into the periplasm, where it detoxifies the antibiotic ampicillin, thereby conferring ampicillin-resistance to cells. Because the level of antibiotic resistance conferred also reflects the level of protein transport activity, the level of ampicillin resistance was determined for Bce44B expressing cells and compared to that of Oee1-Dhfr-expressing cells on solid agar media containing increasing concentrations of ampicillin. […] The Bce44B-expressing cells formed colonies with ampicillin concentrations as high as 3 mg/ml, whereas Oee1-Dhfr-expressing cells could not form colonies beyond 1 mg/ml.
Changes to β-lactamase transport were monitored by two different approaches: 1) the ability to form colonies on solid LB-agar plates containing increasing concentrations of ampicillin (50 μg/ml to 3.0 mg/ml); and 2) the level of transported and processed β-lactamase detected by immunoblotting total protein samples of cells grown in LB-broth containing increasing ampicillin concentrations. […]

Arabidopsis thaliana = assay: Seed size of transgenic plants carrying the CaMV-Bce44B-NOS transgene; type: in vivo; conditions: primary generation of transgenic plants
Source text: Transgenic plants (Brassica napus, Arabidopsis thaliana and Lycopersicon esculentum) with altered plastid protein transport capacity were produced by introducing a transgene construct consisting of DNA encoding the Bce44B protein and a 5′ untranslated region immediately upstream of the Bce44B coding sequence. Expression of the construct was obtained by linking the cauliflower mosaic virus 35S promoter (Odell, J. T. et al. (1985) Nature 313:810) upstream. Transcriptional termination was facilitated by the gene encoding nopaline synthase (NOS) found in Agrobacterium Ti plasmids or their derivatives such as pBI101 (Clontech). Construction of the 35S CAMV-Bce44B-NOS transgene construct is diagrammed in FIG. 6.
For the seed transformation protocol (Feldmann, K., (1992) In: Methods in Arabidopsis Research (eds. C. Koncz, N. H. Chua, J. Schell) pp 274-289), 2.4 grams of Arabidopsis thaliana (ecotype Wassilewskija) seeds were surface sterilized for 8 minutes in 5.25% (wlv) sodium hypochlorite containing 0.15% (v/v) Tween 20, then rinsed 6-7 times with sterile water. The seeds were apportioned among 40 125 ml flasks containing 40 ml cocultivation medium (CCM) (1×MS salts, 40 g/l sucrose, 10 mg/l thiamine, […] pyridoxine, […] nicotinic acid and 100 mg/l inositol, pH 6.0 with KOH). […]

B1: Bce44B: plastid transport protein, Brassica napus 44 kDa chloroplast envelope protein, member of Com44/Cim44, encoded by SEQ ID NO:1 (protein)
chain: MQTAMKTMMNQMNTQNSQFNNPGFPTGAGAGAGSPFPFPFPPQTSPTTSPFQPQSQSSGATVDLTATKVDRPPVSKPQPTPIPPTKSIEVYKPSVVVEENKAMKEEKNYAFEDVSPEETTKESPFSNYEEVSETSAPKETRLFDDVLQNGAAPANGATASDVFQSLGAGKGWAGGSVEVLEKMIEYPTFQKMLYPHLPEEMRNPESFKWVRKNPQYRQQLQDMLNNMSESGEWDKRMTETLKNFDPNSPEVKQGFDQLGLTPEEVISKIMENPDVSMAFQNPRVEAALMDCSENPMNIMKYQNDKEVMDVFNKISQLFPGLTG
[1]
  ampicillin concentration up to which expressing cells form colonies: ≤ 3 mg/mL
Arabidopsis thaliana
  seed size relative to wildtype counterparts or pEND4K-only control plants: approximately twice

From US6353153B1, “Enhanced transport with a plastid membrane transport protein” (priority 1996, dated 2002)
